T1: Lambda Int-h/218 E174K,E218K (Bacteriophage lambda) (UniProt P03700)
T1 sequence: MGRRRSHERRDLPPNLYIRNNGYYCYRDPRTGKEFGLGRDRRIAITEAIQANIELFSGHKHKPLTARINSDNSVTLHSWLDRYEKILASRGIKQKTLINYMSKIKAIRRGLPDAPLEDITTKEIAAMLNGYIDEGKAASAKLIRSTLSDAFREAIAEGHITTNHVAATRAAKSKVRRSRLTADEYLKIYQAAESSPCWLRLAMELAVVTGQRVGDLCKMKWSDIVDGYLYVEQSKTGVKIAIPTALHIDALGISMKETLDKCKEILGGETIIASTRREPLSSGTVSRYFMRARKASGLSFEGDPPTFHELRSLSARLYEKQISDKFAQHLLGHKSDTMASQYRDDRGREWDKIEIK

T2: Lambda Int-h (SynInt-h) E174K (Bacteriophage lambda) (UniProt P03700)
T2 sequence: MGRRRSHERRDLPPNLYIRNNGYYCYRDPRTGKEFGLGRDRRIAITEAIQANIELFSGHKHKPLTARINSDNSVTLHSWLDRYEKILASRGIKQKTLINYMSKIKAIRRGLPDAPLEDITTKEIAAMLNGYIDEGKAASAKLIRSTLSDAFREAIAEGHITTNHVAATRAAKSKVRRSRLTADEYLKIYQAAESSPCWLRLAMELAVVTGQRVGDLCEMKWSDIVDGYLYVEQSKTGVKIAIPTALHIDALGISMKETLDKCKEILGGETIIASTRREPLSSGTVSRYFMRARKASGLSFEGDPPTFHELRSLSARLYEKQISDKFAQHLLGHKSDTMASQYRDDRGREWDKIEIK

T3: Lambda Int-h (SynInt-h) (Bacteriophage lambda, UniProt P03700 SEQ:1-356, E174K)
T3 sequence: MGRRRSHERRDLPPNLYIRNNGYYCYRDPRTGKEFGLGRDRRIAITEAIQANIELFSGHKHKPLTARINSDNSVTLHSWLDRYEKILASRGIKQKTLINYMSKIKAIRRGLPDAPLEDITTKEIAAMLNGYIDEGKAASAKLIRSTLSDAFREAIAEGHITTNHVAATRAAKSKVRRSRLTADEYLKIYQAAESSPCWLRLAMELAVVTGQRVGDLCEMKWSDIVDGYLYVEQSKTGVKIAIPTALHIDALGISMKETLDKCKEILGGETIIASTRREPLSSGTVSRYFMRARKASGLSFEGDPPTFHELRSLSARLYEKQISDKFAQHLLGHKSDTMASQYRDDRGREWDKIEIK

T4: Lambda Int-h/218 (Bacteriophage lambda, UniProt P03700 SEQ:1-356, E174K,E218K)
T4 sequence: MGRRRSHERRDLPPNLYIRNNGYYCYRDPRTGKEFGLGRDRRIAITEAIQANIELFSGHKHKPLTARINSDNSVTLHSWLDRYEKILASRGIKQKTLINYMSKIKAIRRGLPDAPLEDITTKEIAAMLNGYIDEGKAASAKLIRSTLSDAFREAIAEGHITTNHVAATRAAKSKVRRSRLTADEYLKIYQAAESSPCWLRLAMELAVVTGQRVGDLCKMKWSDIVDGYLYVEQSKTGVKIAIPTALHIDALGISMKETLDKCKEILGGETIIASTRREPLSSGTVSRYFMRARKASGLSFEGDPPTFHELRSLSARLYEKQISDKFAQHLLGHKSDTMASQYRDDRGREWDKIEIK


Legend:
[1] = biological target: T1, Lambda Int-h/218 E174K,E218K (Bacteriophage lambda); experiment: cell_activity; details: attP x attB without IHF, maize BMS cells
[2] = biological target: T2, Lambda Int-h (SynInt-h) E174K (Bacteriophage lambda); experiment: cell_activity; details: attP x attB without IHF, maize BMS cells
Lambda Int-h (SynInt-h) = biological target: T3, Lambda Int-h (SynInt-h); experiment: cell_activity; attB x attP without IHF, maize BMS cells; details: chain copies: 4
Method: (§1) Bombarded BMS cells are incubated in the dark at 28° C. for 48 hours. After incubation, the cells are assayed for luciferase expression levels.

Lambda Int-h/218 = biological target: T4, Lambda Int-h/218; experiment: as above; details: chain copies: 4
Method: as §1

Molecule | activity (fold luciferase over substrate alone) [1] | activity (fold luciferase over substrate alone) [2] | activity (Lambda Int-h (SynInt-h)) | activity (Lambda Int-h/218)
TCTGTTACAGGTCACTAATACCATCTAAGTAGTTGATTCATAGTGACTGCATATGTTGTGTTTTACAGTATTATGTAGTCTGTTTTTTATGCAAAATCTAATTTAATATATTGATATTTATATCATTTTACGTTTCTCGTTCAGCTTTTTTATACTAAGTTGGCATTATAAAAAAGCATTGCTTATCAATTTGTTGCAACGAACAGGTCACTATCAGTCAAAATAAAATCATTATTTGATTTC (double strand) [attP] | 49 | 15 |  | 
attB (dsDNA) DNA 1: TGAAGCCTGCTTTTTTATACTAACTTGAGCG DNA 2: CGCTCAAGTTAGTATAAAAAAGCAGGCTTCA |  |  | 15 fold luciferase over substrate alone | 49 fold luciferase over substrate alone
